In publication PMC8511391 (2021):
Ends that are not written are not given here.

Key:
[1] = target: T1, Kv1.2 (Homo sapiens, UniProt P16389); experiment: patch-clamp dose-response
[2] = target: T2, Kv1.3 (Homo sapiens, UniProt P22001); experiment: patch-clamp dose-response
[3] = target: T1, Kv1.2; experiment: patch-clamp kinetics (koff/kon)
[4] = target: T2, Kv1.3; experiment: patch-clamp kinetics (koff/kon)

T1 sequence (P16389 whole entry): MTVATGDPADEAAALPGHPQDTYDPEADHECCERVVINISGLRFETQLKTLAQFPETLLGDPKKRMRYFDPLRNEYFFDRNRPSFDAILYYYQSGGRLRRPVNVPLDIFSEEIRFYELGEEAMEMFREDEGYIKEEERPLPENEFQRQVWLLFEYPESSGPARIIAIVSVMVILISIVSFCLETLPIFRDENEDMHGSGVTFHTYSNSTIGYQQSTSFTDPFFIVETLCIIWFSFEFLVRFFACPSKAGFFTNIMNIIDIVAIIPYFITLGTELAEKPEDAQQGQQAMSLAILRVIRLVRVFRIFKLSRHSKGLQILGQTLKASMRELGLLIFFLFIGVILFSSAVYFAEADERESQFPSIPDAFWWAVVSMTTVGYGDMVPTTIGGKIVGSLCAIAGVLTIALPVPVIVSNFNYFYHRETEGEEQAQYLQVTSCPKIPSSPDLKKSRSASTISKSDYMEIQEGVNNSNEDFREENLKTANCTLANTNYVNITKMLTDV
T2 sequence (P22001 whole entry): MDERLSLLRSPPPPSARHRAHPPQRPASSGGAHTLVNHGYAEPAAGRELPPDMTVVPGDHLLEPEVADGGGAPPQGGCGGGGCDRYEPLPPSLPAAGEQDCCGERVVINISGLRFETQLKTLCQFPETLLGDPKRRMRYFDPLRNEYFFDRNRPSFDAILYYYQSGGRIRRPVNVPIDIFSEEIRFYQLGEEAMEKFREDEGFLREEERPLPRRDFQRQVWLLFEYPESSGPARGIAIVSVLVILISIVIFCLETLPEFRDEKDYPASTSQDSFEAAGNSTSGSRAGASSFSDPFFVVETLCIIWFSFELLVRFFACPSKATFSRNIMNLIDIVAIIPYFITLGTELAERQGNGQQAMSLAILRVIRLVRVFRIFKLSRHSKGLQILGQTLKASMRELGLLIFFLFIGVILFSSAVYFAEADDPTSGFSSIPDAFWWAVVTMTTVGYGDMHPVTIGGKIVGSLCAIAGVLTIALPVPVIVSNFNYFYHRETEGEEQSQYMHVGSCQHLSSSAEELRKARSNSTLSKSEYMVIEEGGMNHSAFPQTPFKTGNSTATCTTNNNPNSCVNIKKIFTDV

Row | Binder | Kd [1] | Kd [2] | Kd [3] | Kd [4]
1 | {Glu-Phe-H2N-H2N-H2N-H2N-H2N-H2N}-LQIEGRTIINVKCTSPKQCLPPCKAQFGQSAGAKCMNGKCKCYPH (not fully specified; ends and bridges not checked) [Margatoxin (TrMgTx)] | 0.064 nM | 0.086 nM | 0.0623 nM | 0.0839 nM
2 | TIINVKCTSPKQCLPPCKAQFGQSAGAKCMNGKCKCYPH [Margatoxin (UrMgTx)] | 0.014 nM | 0.05 nM | 0.015 nM | 0.0522 nM
